Measured values: publication PMC3985704

Molecular target: T1, unmodified Dictyostelium Skp1A (Dictyostelium discoideum), P52285
T1 chain: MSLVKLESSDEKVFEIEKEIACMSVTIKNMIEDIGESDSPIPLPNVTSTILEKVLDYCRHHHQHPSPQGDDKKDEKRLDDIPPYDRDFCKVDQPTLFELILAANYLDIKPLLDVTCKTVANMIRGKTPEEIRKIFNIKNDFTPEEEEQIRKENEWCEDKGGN
Test: SAXS
Settings: remark: other sources report otherwise

B1: unmodified Dictyostelium Skp1A, P52285 1-162 (natural protein)
chain: MSLVKLESSDEKVFEIEKEIACMSVTIKNMIEDIGESDSPIPLPNVTSTILEKVLDYCRHHHQHPSPQGDDKKDEKRLDDIPPYDRDFCKVDQPTLFELILAANYLDIKPLLDVTCKTVANMIRGKTPEEIRKIFNIKNDFTPEEEEQIRKENEWCEDKGGN
B1 was tested, and the stoichiometry N was 2.
